Patent publication US20250145690A1 (US Dept. of Health and Human Services, published 2025)

How the values were obtained:
Assay in all cases: bead flow cytometry, AUC minus CD4
[1] = biological target: T1, HCoV-NL63 spike protein (Sino Biological 40604-V08B) (HCoV-NL63, UniProt Q6Q1S2 19-1296)
T1 sequence: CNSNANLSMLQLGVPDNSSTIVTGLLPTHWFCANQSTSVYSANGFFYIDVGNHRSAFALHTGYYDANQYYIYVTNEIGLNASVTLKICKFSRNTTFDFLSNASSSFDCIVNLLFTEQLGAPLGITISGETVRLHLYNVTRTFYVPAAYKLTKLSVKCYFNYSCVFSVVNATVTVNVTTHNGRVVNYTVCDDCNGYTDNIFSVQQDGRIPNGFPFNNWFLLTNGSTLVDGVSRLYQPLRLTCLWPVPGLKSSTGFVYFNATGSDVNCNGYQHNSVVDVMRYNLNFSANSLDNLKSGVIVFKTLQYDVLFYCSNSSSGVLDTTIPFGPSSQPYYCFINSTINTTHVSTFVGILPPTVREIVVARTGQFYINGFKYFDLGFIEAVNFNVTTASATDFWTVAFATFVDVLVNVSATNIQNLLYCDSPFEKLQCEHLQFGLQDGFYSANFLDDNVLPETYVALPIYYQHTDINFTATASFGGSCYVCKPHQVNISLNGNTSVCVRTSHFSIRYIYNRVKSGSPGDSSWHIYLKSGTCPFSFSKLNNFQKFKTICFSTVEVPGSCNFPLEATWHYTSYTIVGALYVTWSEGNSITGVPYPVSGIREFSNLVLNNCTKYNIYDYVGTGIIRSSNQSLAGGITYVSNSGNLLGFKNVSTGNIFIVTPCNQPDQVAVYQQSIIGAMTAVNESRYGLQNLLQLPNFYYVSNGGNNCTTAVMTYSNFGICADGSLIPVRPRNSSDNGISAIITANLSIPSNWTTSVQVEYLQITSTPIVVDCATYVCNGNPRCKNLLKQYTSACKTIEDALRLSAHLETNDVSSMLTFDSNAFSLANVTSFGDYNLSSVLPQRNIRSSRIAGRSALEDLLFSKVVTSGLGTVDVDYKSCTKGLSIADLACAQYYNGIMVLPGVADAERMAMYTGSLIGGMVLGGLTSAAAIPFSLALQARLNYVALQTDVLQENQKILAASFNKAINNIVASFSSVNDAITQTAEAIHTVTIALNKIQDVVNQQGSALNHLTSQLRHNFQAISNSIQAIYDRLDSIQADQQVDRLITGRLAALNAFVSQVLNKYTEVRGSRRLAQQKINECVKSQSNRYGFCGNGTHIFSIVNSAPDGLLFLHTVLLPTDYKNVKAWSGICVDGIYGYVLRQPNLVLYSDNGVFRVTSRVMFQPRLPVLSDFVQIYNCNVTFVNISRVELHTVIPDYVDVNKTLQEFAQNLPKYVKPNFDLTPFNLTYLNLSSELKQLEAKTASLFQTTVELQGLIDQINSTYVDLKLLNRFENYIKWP

[2] = biological target: T2, HCoV-229E spike protein (Sino Biological 40605-V08B) (HCoV-229E, UniProt P15423 16-1115)
T2 sequence: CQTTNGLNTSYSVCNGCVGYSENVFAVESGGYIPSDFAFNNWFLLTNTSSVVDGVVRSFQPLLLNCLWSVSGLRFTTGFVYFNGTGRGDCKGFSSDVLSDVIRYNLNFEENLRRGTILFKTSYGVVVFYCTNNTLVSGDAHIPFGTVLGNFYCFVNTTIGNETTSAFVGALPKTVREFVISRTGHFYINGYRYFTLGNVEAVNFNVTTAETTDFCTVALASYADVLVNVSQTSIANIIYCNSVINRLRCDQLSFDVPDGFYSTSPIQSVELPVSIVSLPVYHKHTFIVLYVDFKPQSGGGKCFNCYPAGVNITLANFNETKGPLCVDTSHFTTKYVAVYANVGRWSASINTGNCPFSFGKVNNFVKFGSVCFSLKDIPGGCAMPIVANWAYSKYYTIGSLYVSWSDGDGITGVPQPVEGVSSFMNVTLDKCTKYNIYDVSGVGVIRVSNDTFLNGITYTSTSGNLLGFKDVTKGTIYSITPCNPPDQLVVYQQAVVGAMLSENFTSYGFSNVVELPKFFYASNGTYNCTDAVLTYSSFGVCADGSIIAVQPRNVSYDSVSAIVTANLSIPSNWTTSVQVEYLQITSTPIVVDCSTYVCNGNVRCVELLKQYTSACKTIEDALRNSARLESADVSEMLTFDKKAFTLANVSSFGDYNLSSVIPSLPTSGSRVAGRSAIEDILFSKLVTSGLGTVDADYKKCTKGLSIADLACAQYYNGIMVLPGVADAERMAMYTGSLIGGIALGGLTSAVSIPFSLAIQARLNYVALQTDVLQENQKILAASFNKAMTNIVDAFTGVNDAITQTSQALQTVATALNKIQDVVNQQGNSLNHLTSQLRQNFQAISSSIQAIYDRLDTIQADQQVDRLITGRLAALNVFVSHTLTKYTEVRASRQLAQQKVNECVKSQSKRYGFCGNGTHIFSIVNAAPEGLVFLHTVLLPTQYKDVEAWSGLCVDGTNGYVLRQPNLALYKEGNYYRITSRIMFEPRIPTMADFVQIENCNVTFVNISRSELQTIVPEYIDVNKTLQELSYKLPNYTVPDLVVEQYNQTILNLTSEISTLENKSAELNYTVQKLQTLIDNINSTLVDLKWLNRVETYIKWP

[3] = biological target: SARS-CoV-2 spike receptor binding domain (RBD), recombinant (SARS-CoV-2, UniProt P0DTC2 319-541)
[4] = biological target: SARS-CoV-2 spike N-terminal domain (NTD), recombinant (SARS-CoV-2, UniProt P0DTC2 14-305)

Measured: binding result

B1: COV44-74 (antibody, V domains shown)
VH: QVQLVQSGAEVKKPGASVKVSCKASGYTFSSYYMNWVRQAPGQGLEWVGLISPSAGYTAYAQMFQGRVTMTRDTSTSTVYMELSSLRSEDTAVYYCARVAVAGPNDYWGQGTLVTVSS
VL: EIVLTQSPGTLSLSPGERATLSCRASQSISSSYLAWYQQKPGQAPRLVILAASTRATGIPDRFSGSGSGTDFTLTISRLEPEDFALYYCQHYRSSPPLWTFGQGTKVEIR
no binding (tested: 200 µg/mL): [1] | [2] | [3] | [4]

B2: COV49-54 (antibody, V domains shown)
VH: EVQLVESGGGLVQPGGSLRLSCAASGFIVSSNYMSWVRQAPGKGLEWVSMIYSGGSTVYADSVKGRFTISRDISKNTLYLQMNSLRAEDTAVYYCALETFDYWGQGTLVTVSS
VL: DIQMTQSPSSLSASVGDRVTITCRASQGITNHLAWYQQKPGKVPKLLIYAASTLQSGVPSRFSGSGYGTDFTLTISSLQPEDVASYYCQKYDSAPRTFGQGTKVEIK
no binding (tested: 200 µg/mL): [1] | [2] | [3] | [4]

B3: COV57-34 (antibody, V domains shown)
VH: QVQLVQSGTEVKKPGSSVKVSCRASGGTLSSYSVSWVRQAPGQGLEWMGRIIPILDKKTYAQKYQGRVTIIADTSTSTVYMELSSLKSDDSAVYYCTTFDYDTSGQRDQHDYWGQGTPVTVSS
VL: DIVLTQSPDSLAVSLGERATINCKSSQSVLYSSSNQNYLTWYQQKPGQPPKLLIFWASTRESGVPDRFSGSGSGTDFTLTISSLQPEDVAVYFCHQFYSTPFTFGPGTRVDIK
no binding (tested: 200 µg/mL): [1] | [2] | [3] | [4]

B4: COV57-13 (antibody, V domains shown)
VH: QVQLVQSGTEVKKPGSSVKVSCRASGGTLSSYSVSWVRQAPGQGLEWMGRIIPILDKKTYAQKYQGRVTIIADTSTSTVYMELSSLKSEDSAVYYCTTFDYDTSGQRDQHDYWGQGTLVTVSS
VL: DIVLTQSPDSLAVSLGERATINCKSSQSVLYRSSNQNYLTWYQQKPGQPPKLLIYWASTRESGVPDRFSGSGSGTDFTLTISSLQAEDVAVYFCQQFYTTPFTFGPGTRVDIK
no binding (tested: 200 µg/mL): [1] | [2] | [3] | [4]

B5: COV77-09 (antibody, V domains shown)
VH: EVQLVESGGGLVQPGRSLTLSCSGSGFTFGDYSMSWVRQAPGKGLEWLGFIRSQTYGGTTQYAASVQGRFTILRDDSKSIAYLQMNSLKTEDTAVYYCTRNYGVGDYWGQGTLVTVSS
VL: DIVMTQSPASLAVSLGERATIHCRSSLSVLNSSNNKNYLAWYQQKAGQPPKLLMYWASTRESGVPERFSGSGSGTDFTLTISSLEAGDVAVYYCQQYYDKLSLTFGGGTKVEIK
no binding (tested: 200 µg/mL): [1] | [2] | [3] | [4]

B6: COV23-01 (antibody, V domains shown)
VH: QVTLKESGPVLVKPTETLTLTCTVSGFSLSNTKMGVSWIRQPPGKALEWLAHIFSNDRKSYTTSLKSRLTISEDTSKSQIVLTMTNMDPVDTATYYCARIGAGGTYNFYYYMDVWGKGTTVTVSS
VL: EIVLTQSPATLSLSPGERATLSCRASQSVSSYLAWYQQKPGQAPRLLIYDASNRATGIPARFSGSGSGTDFTLTISSLEPEDFAVYYCQQRSLYYTFGQGTKLEIK
no binding (tested: 200 µg/mL): [1] | [2] | [3] | [4]

B7: COV44-37 (antibody, V domains shown)
VH: QVQLVQSGAEVKKPGASVMLSCRASGYTFINDYMHWVRQAPGEGFEWMGIINPTGDGTKFAQKFQGRVTMTRDSSTTTVHMELRSLTSGDTAVYFCATGGRQSAFDIWGQGTVVIVSS
VL: DIVMTQSPLSLPVTPGESASISCRSSQSLLQNNGYNYLDWYLQKPGQSPQLLIYLGSYRASGVPDRFSGSGSGTDFTLKISRVEAEDVGVYYCVQAQQAPPLYTFGQGTKLQIK
no binding (tested: 200 µg/mL): [1] | [2] | [3] | [4]

B8: COV57-38 (antibody, V domains shown)
VH: QVQLVESGGGVVQPGRSLRLSCEASGFNFNNYGMHWVRQAPGKGLEWVAVISYEGSKKYYEDSVRGRFTISRDFSKNTLYLQMNSLRAEDTAVYYCAKANEIFWLGQFKNDALDFWGQGTMVTVSS
VL: QSVLTQPPSASGTPGQRVAVSCSGSSSNIGTNFVNWYQHLPRTAPKLLIYRDNQRPSGVPDRFSGSKSGTSASLAISGLQSEDEADYYCAVWDDSLNGQVFGGGTKVTVL
no binding (tested: 200 µg/mL): [1] | [2] | [3] | [4]
